Measurements as given in the supplement of paper PMC11196671.
± gives the standard deviation of the averaged measurements.

Assay: PET hydrolysis product formed (TPA+MHET+BHET, UV-Vis) per mg enzyme (mmol/mg enzyme); higher = more PET depolymerisation activity; extreme values may be limits of the assay
Conditions: 24 h
Protocol: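 Purified PET hydrolases, 2.5 ug enzyme on 3.5 mg amorphous PET film (aFilm) or crystalline PET powder (cryPow) in 0.5 mL of 50 mM buffer (NaCitrate pH 4.5/5.5, NaPhosphate 6.5/7.5, glycine 8.5/9.5) at 60 or 70 C with shaking for 24 h. Total aromatic product by UV-Vis (260/280 nm, blank-subtracted, normalised per mg enzyme) and individual TPA, MHET, BHET concentrations by UHPLC-DAD at 240 nm; duplicate reactions.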

[1] = PET substrate: aFilm, 60 °C, pH 4.5
[2] = PET substrate: aFilm, 60 °C, pH 5.5
[3] = PET substrate: aFilm, 60 °C, pH 6.5
[4] = PET substrate: aFilm, 60 °C, pH 7.5
[5] = PET substrate: aFilm, 60 °C, pH 8.5
[6] = PET substrate: aFilm, 60 °C, pH 9.5
[7] = PET substrate: aFilm, 70 °C, pH 4.5
[8] = PET substrate: aFilm, 70 °C, pH 5.5
[9] = PET substrate: aFilm, 70 °C, pH 6.5
[10] = PET substrate: aFilm, 70 °C, pH 7.5
[11] = PET substrate: aFilm, 70 °C, pH 8.5
[12] = PET substrate: aFilm, 70 °C, pH 9.5
[13] = PET substrate: cryPow, 60 °C, pH 4.5
[14] = PET substrate: cryPow, 60 °C, pH 5.5
[15] = PET substrate: cryPow, 60 °C, pH 6.5
[16] = PET substrate: cryPow, 60 °C, pH 7.5
[17] = PET substrate: cryPow, 60 °C, pH 8.5
[18] = PET substrate: cryPow, 60 °C, pH 9.5
[19] = PET substrate: cryPow, 70 °C, pH 4.5
[20] = PET substrate: cryPow, 70 °C, pH 5.5
[21] = PET substrate: cryPow, 70 °C, pH 6.5
[22] = PET substrate: cryPow, 70 °C, pH 7.5
[23] = PET substrate: cryPow, 70 °C, pH 8.5
[24] = PET substrate: cryPow, 70 °C, pH 9.5

Sequence | PET hydrolysis product formed [1] | PET hydrolysis product formed [2] | PET hydrolysis product formed [3] | PET hydrolysis product formed [4] | PET hydrolysis product formed [5] | PET hydrolysis product formed [6] | PET hydrolysis product formed [7] | PET hydrolysis product formed [8] | PET hydrolysis product formed [9] | PET hydrolysis product formed [10] | PET hydrolysis product formed [11] | PET hydrolysis product formed [12] | PET hydrolysis product formed [13] | PET hydrolysis product formed [14] | PET hydrolysis product formed [15] | PET hydrolysis product formed [16] | PET hydrolysis product formed [17] | PET hydrolysis product formed [18] | PET hydrolysis product formed [19] | PET hydrolysis product formed [20] | PET hydrolysis product formed [21] | PET hydrolysis product formed [22] | PET hydrolysis product formed [23] | PET hydrolysis product formed [24]
ANPYERGPNPTDALLEARSGPFSVSEENVSRLSASGFGGGTIYYPRENNTYGAVAISPGYTGTEASIAWLGERIASHGFVVITIDTITTLDQPDSRAEQLNAALNHMINRASSTVRSRIDSSRLAVMGHSMGGGGSLRLASQRPDLKAAIPLTPWHLNKNWSSVTVPTLIIGADLDTIAPVATHAKPFYNSLPSSISKAYLELDGATHFAPNIPNKIIGKYSVAWLKRFVDNDTRYTQFLCPGPRDGLFGEVEEYRSTCPF [TfCut2] | 0 | 0.0295 ± 0.0072 | 0.0361 ± 0.011 | 0.111 ± 0.025 | 0.0556 ± 0.0097 | 0.133 ± 0.015 | 0 | 0 | 0.0032 ± 0.0045 | 0 | 0.0109 ± 0.00071 | 0.0072 ± 0.0013 | 0 | 0 | 0.00709 ± 0.01 | 0.0369 ± 0.026 | 0.0198 ± 0.0049 | 0.0223 ± 0.019 | 0 | 0 | 0 | 0 | 0 | 0
QTNPYARGPNPTAASLEASAGPFTVRSFTVSRPSGYGAGTVYYPTNAGGTVGAIAIVPGYTARQSSIKWWGPRLASHGFVVITIDTNSTFDYPSSRSSQQMAALRQVASLNGDSSSPIYGKVDTARMGVMGHSMGGGASLRSAANNPSLKAAIPQAPWDSQTNFSSVTVPTLIFACENDSIAPVNSHALPIYDSMSRNAKQFLEINGGSHSCANSGNSNQALIGKKGVAWMKRFMDNDTRYSTFACENPNSTAVSDFRTANCS [DuraPETase] | 0 | 0 | 0 | 0.0929 ± 0.001 | 0.0536 ± 0.017 | 0.126 ± 0.074 | 0 | 0 | 0 | 0.00371 ± 0.0053 | 0.00439 ± 0.0062 | 0.0201 ± 0.0018 | 0 | 0 | 0.0167 ± 0.003 | 0.0809 ± 0.0013 | 0.0578 ± 0.007 | 0.0891 ± 0.015 | 0 | 0 | 0 | 0.0465 ± 0.014 | 0.0236 ± 0.0064 | 0
SNPYQRGPNPTRSALTATGPFSVATYTVSRLLVSGFGGGVIYYPTGTSLTFGGIAMSPGYTADASSLAWLGRRLASHGFVVLVINTNSRFDGPDSRARQLSAALNYLRTSSPSAVRARLDANRLAVAGHSMGGGGTLRIAEQNPSLKAAVPLTPWHPDKTFNTSVPVLIVGAQADTVAPVSQHAIPFYQNLPSTTPKVYVELCNASHIAPNSPNAAISVYTISWMKLWVDNDTRYRQFLCNVNDPALCDFRTNNRHCQ [LCC-ICCG I6M] | 0.0326 ± 0.002 | 0.147 ± 0.082 | 0.223 ± 0.032 | 1.32 ± 0.091 | 0.169 ± 0.013 | 0.577 ± 0.0065 | 0 | 0.105 ± 0.017 | 0.0963 ± 0.031 | 0.788 ± 0.054 | 0.0775 ± 0.0074 | 0.402 ± 0.064 | 0.01995 ± 0.00015 | 0.0583 ± 0.0049 | 0.0726 ± 0.0072 | 0.0808 ± 0.017 | 0.0461 ± 0.015 | 0.0598 ± 0.019 | 0 | 0.0302 ± 0.0017 | 0.05 ± 0.0014 | 0.122 ± 0.028 | 0.0495 ± 0.023 | 0.0468 ± 0.0039
SNPYQRGPNPTRSALTADGPFSVRTYTISRLSVSGFGGGVIYYPTGTSLTFGGIAMSPGYTADASSLAWLGRRLASHGFVVLVINTNSRFDGPDSRASQLSAALNYLRTSSPSAVRARLDANRLAVAGHSMGGGGTLRIAEQNPSLKAAVPLTPWHTDKTFNTSVPVLIVGAEADTVAPVSQHAIPFYQNLPSTTPKVYVELCNASHIAPNSPNAAISVYTISWMKLWVDNDTRYRQFLCNVNDPALCDFRTNNRHCQ [LCC-ICCG RIP] | 0.029 ± 0.018 | 0.0802 ± 0.0094 | 0.202 ± 0.029 | 0.775 ± 0.2 | 0.127 ± 0.0045 | 0.684 ± 0.33 | 0 | 0.103 ± 0.02 | 0.181 ± 0.01 | 1.26 ± 0.084 | 0.1 ± 0.01 | 0.65 ± 0.11 | 0.0235 ± 0.002 | 0.0628 ± 0.0065 | 0.082 ± 0.00092 | 0.113 ± 0.0013 | 0.0714 ± 0.033 | 0.0784 ± 0.011 | 0 | 0.0369 ± 0.0017 | 0.0809 ± 0.0019 | 0.162 ± 0.034 | 0.0631 ± 0.0059 | 0.0938 ± 0.0042
QTNPYARGPDPTAASLEASAGPFTVRSFTVSRPSGYGAGTVYYPTNAGGTVGAIAIVPGYTARQSSIKWWGPRLASHGFVVITIDTNSTLDQPESRSSQQMAALEQVASLNGTSSSPIYGKVDTARMGVMGWSMGGGGSLISACNNPSLKAAVVQAPWHSSTNFSCVTVPTLIFACENDSIAPVNSSALPIYDSMSENAKQFLEICGGSHSCANTGNSDQALIGKKGVAWMKRFMDNDTRYSTFACENPNSTRVCDFRTANCS [Z1-PETase] | 0 | 0.00483 ± 0.0068 | 0.113 ± 0.03 | 0.617 ± 0.27 | 0.103 ± 0.0058 | 0.517 ± 0.092 | 0 | 0 | 0 | 0.00464 ± 0.0066 | 0 | 0.00672 ± 0.0095 | 0 | 0.0183 ± 0.014 | 0.126 ± 0.0032 | 0.152 ± 0.0075 | 0.117 ± 0.022 | 0.134 ± 0.0067 | 0 | 0 | 0.0331 ± 0.0023 | 0.0691 ± 0.012 | 0.0403 | 0.0592 ± 0.022
SNPYQRGPNPTRSALTADGPFSVATYTVSRLSVSGFGGGVIYYPTGTSLTFGGIAMSPGYTADASSLAWLGRRLASHGFVVLVINTNSRFDGPDSRASQLSAALNYLRTSSPSAVRARLDANRLAVAGHSMGGGGTLRIAEQNPSLKAAVPLTPWHTDKTFNTSVPVLIVGAEADTVAPVSQYAIPFYQNLPSTTPKVYVELCNASHIAPNSDNAAISVYTISWMKLWVDNDTRYRQFLCNVNDPALCDFRTNNRHCQ [LCC-A2] | 0.0551 ± 0.011 | 0.331 ± 0.024 | 0.484 ± 0.058 | 2.22 ± 0.15 | 0.195 ± 0.039 | 0.963 ± 0.16 | 0 | 0.181 ± 0.01 | 0.361 ± 0.048 | 2.87 ± 0.14 | 0.171 ± 0.012 | 0.934 ± 0.039 | 0.0357 ± 0.0049 | 0.0766 ± 0.0022 | 0.152 ± 0.0036 | 0.261 ± 0.063 | 0.0909 ± 0.014 | 0.195 ± 0.032 | 0 | 0.0541 ± 0.0076 | 0.139 ± 0.014 | 0.334 ± 0.043 | 0.0995 ± 0.007 | 0.205 ± 0.0083
